{"source": "paper PMC12065222", "key": {"[1]": {"biological_target": "PD-1 on IcAR-PD-1 cells (Immune Checkpoint Artificial Reporter overexpressing PD-1) (human) (UniProt Q15116)"}, "[2]": {"biological_target": "PD-1 on IcAR-PD-1 cells (Immune Checkpoint Artificial Reporter overexpressing PD-1) (human) (UniProt Q15116)", "remark": "listed apart in the source"}, "[3]": {"biological_target": "PD-1 on primary human CD8+ T cells (human (endogenous in primary T cells of donors)) (UniProt Q15116)"}, "[4]": {"biological_target": "PD-1 on primary human CD8+ T cells (human (endogenous in primary T cells of donors)) (UniProt Q15116)", "remark": "listed apart in the source"}, "[5]": {"biological_target": "PD-1 on IcAR-PD-1 cells (Immune Checkpoint Artificial Reporter overexpressing PD-1) (human) (UniProt Q15116)", "remark": "listed apart in the source"}, "[6]": {"biological_target": "PD-1 on IcAR-PD-1 cells (Immune Checkpoint Artificial Reporter overexpressing PD-1) (human) (UniProt Q15116)", "remark": "listed apart in the source"}, "[7]": {"test": "surface PD-L1 flow cytometry, MCF7", "conditions": "glycan lost; control: WT PD-L1, MCF7"}, "[8]": {"test": "surface PD-L1 flow cytometry, MDA-MB231", "conditions": "glycan lost; control: WT PD-L1, MDA-MB231"}, "[9]": {"test": "EV-bound PD-L1 ELISA after ultracentrifugation", "conditions": "glycan lost; control: WT PD-L1"}, "[10]": {"test": "IcAR-PD-1 mIL-2 with ICBs, A375 and A549 cells", "conditions": "glycan lost; control: WT PD-L1"}, "[11]": {"test": "PD-L1 ELISA of cell lysates, MDA-MB231 and MCF7", "conditions": "glycan lost; control: WT PD-L1"}, "[12]": {"test": "soluble PD-L1 ELISA of supernatants, MDA-MB231 and MCF7", "conditions": "glycan lost; control: WT PD-L1"}, "[13]": {"test": "total-cellular/membrane PD-L1 ratio, flow cytometry, fixed MCF7", "conditions": "glycan lost; control: WT PD-L1, MCF7"}, "[14]": {"test": "total-cellular/membrane PD-L1 ratio, flow cytometry, fixed MDA-MB231", "conditions": "glycan lost; control: WT PD-L1, MDA-MB231"}, "[15]": {"biological_target": "PD-1 on IcAR-PD-1 cells (Immune Checkpoint Artificial Reporter overexpressing PD-1) (human) (UniProt Q15116)", "remark": "listed apart in the source"}}, "data": [{"substance": "PD-L1 N35A glycosylation mutant (from UniProt Q9NZQ7 19-290) (ligand)", "values": [{"measurement": "percent blocking of the mIL-2 signal of IcAR-PD-1 cells by the anti-PD-1 antibody Nivolumab (1.5-40 µg/mL), MCF7 cells", "setting": "[1]", "result": "> 50", "unit": "%"}, {"measurement": "percent blocking of the mIL-2 signal of IcAR-PD-1 cells by Cemiplimab (anti-PD-1, 10 µg/mL), fixed MCF7 cells", "setting": "[2]", "result": 53, "unit": "%"}, {"measurement": "percent blocking of the mIL-2 signal of IcAR-PD-1 cells by Cemiplimab (anti-PD-1, 10 µg/mL), fixed MDA-MB231 cells", "setting": "[2]", "result": 19.6, "unit": "%"}, {"measurement": "percent blocking of the mIL-2 signal of IcAR-PD-1 cells by Nivolumab (anti-PD-1, 10 µg/mL), fixed MCF7 cells", "setting": "[2]", "result": 98.6, "unit": "%"}, {"measurement": "percent blocking of the mIL-2 signal of IcAR-PD-1 cells by Nivolumab (anti-PD-1, 10 µg/mL), fixed MDA-MB231 cells", "setting": "[2]", "result": 83.2, "unit": "%"}, {"measurement": "percent blocking of the mIL-2 signal of IcAR-PD-1 cells by Pembrolizumab (anti-PD-1, 10 µg/mL), fixed MCF7 cells", "setting": "[2]", "result": 100, "unit": "%"}, {"measurement": "percent blocking of the mIL-2 signal of IcAR-PD-1 cells by Pembrolizumab (anti-PD-1, 10 µg/mL), fixed MDA-MB231 cells", "setting": "[2]", "result": 91.6, "unit": "%"}, {"measurement": "percent of CD107a+ cells among CD8+ PD-1+ TCM cells (degranulation) after 4 h co-culture of anti-hCD3-activated PBMCs with MCF7 cells", "setting": "[3]", "result": 3.1, "unit": "%"}, {"measurement": "percent of CD107a+ cells among CD8+ PD-1+ TCM cells (degranulation) after 4 h co-culture of anti-hCD3-activated PBMCs with MDA-MB231 cells", "setting": "[3]", "result": 3.7, "unit": "%"}, {"measurement": "percent lysis of MCF7 target cells by PBMCs (killing assay)", "setting": "[4]", "result": 3.8, "unit": "%"}, {"measurement": "percent lysis of MDA-MB231 target cells by PBMCs (killing assay)", "setting": "[4]", "result": 12.2, "unit": "%"}]}, {"substance": "PD-L1 Nx4 mutant (all four N-glycosylation sites replaced by alanine) (from UniProt Q9NZQ7 19-290) (ligand)", "values": [{"measurement": "percent blocking of the mIL-2 signal of IcAR-PD-1 cells by anti-PD-1 antibodies Pembrolizumab, Nivolumab, Cemiplimab, all concentrations, MDA-MB231 and MCF7 cells", "setting": "[5]", "result": 100, "unit": "%"}, {"measurement": "mIL-2 response of IcAR-PD-1 cells incubated 24 h with formalin-fixed MCF7 cells, no antibody; fold reduction against PD-L1WT (fold reduction)", "setting": "[6]", "result": 22}, {"measurement": "mIL-2 response of IcAR-PD-1 cells incubated 24 h with formalin-fixed MDA-MB231 cells, no antibody; fold reduction against PD-L1WT (fold reduction)", "setting": "[6]", "result": 10}, {"measurement": "percent of CD107a+ cells among CD8+ PD-1+ TCM cells (degranulation) after 4 h co-culture of anti-hCD3-activated PBMCs with MCF7 cells", "setting": "[3]", "result": 6.1, "unit": "%"}, {"measurement": "percent of CD107a+ cells among CD8+ PD-1+ TCM cells (degranulation) after 4 h co-culture of anti-hCD3-activated PBMCs with MDA-MB231 cells", "setting": "[3]", "result": 10.3, "unit": "%"}, {"measurement": "percent lysis of MCF7 target cells by PBMCs (killing assay)", "setting": "[4]", "result": 7, "unit": "%"}, {"measurement": "percent lysis of MDA-MB231 target cells by PBMCs (killing assay)", "setting": "[4]", "result": 39.1, "unit": "%"}]}, {"substance": "PD-L1: N35A", "values": [{"measurement": "expression_or_secretion, fold_change", "setting": "[7]", "result": "no change"}, {"measurement": "expression_or_secretion, fold_change", "setting": "[8]", "result": "no change"}, {"measurement": "expression_or_secretion", "setting": "[9]", "result": "increases"}, {"measurement": "other: antibody blockade of PD-L1/PD-1 interaction", "setting": "[10]", "result": "decreases"}, {"measurement": "expression_or_secretion", "setting": "[11]", "result": "no change"}, {"measurement": "expression_or_secretion", "setting": "[12]", "result": "increases, decreased by approximately 35% in MDA-MB231 PD-L1N35A cells and about 45% in MCF7 PD-L1N35A cells"}, {"measurement": "localisation_or_trafficking", "setting": "[13]", "result": "no change"}, {"measurement": "localisation_or_trafficking, fold_change", "setting": "[14]", "result": "no change, a slight increase in total-cellular PD-L1 levels was observed in PD-L1N35A mutant MDA-MB231 cells"}]}, {"substance": "PD-L1: N192A", "values": [{"measurement": "expression_or_secretion, fold_change", "setting": "[7]", "result": "no change"}, {"measurement": "expression_or_secretion, fold_change", "setting": "[8]", "result": "no change"}]}, {"substance": "PD-L1: N200A", "values": [{"measurement": "expression_or_secretion, fold_change", "setting": "[7]", "result": "no change"}, {"measurement": "expression_or_secretion, fold_change", "setting": "[8]", "result": "no change"}]}, {"substance": "PD-L1: N219A", "values": [{"measurement": "expression_or_secretion, fold_change", "setting": "[7]", "result": "no change"}, {"measurement": "expression_or_secretion, fold_change", "setting": "[8]", "result": "no change"}]}, {"substance": "WT PD-L1 (programmed death-ligand 1) (from UniProt Q9NZQ7 19-290)", "values": [{"measurement": "concentration of the anti-PD-1 antibody Pembrolizumab that completely blocked the mIL-2 signal of IcAR-PD-1 cells, MDA-MB231 and MCF7 cells", "setting": "[15]", "result": 20, "unit": "µg/mL"}]}]}
